# From the nanobody polyreactivity screen of Harvey et al. (2022)
# Assay: yeast display, Sf9 membrane polyspecificity reagent, FACS + sequencing; frameworks hold sequencing errors
# In short: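 Polyreactivity labels are assigned by the sorting gate from which each nanobody was recovered. The gates were low and high (top ~1%), set on anti-HA fluorescence for expression and streptavidin fluorescence for reagent binding. Before sorting, galactose-induced (36–48 hours) yeast display cells were stained for 1 hour at 4 °C with 10% biotinylated, detergent-solubilized Sf9 membrane reagent.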
row,Sequence,polyreactivity (PSR sort gate)
1,QVQLVESGGGLVQAGGSLRLSCAASGFIFQGYTMGWYRQAAGKERELVAAITSSGRTYYADSVKGRFTISRDNAKNTVYLQMNSLKPEDTAVYYCNADFLPSVANDYWGQGTQVTVSS,low polyreactivity
2,QVQLVESGGGLVQAGGSLRLSCAASGFIFQHYAMGWYRQAPGKERELVAAISKSGGSTYYADSVKGRFTISRDNAKNTVYLQMNSLKPEDTAVYYCAKVAVAGRGSGNYINHRFDYWGQGTQVTVSS,high polyreactivity
3,QVQLVESGGGLVQAGGSLRLSCAASGFIFQPYAMGWYRQAPGKERELVAAITSRGGRTYYADSVKGRFTISRDNAMNTVYLLMNSLKPEDTAVYYCAKRYAVYVTHFSRIRWYNYWGQGTQVTVSS,low polyreactivity
4,QVQLVESGGGLVQAGGSLRLSCAASGFIFQPYAMGWYRQAPVKERELVAAITSRGGRTYYADSVKGRFTISRDNAKNTVYLQMNSLKPEDTAVYYCNADIYASEYYYWGQGTQVTVSS,low polyreactivity
5,QVQLVESGGGLVQAGGSLRLSCAASGFIFQRYAMGWYRQAPGKERELVAAITRTGGRTYYADSVKGRFTISRDNAKNTVYLQMNSLKPEDTAVYYCAADRTLSYEYWGQGTQVTVSS,high polyreactivity
6,QVQLVESGGGLVQAGGSLRLSCAASGFIFQSYAMGWYRQAPGKERELVASITRSGGSTYYADSVKGRFTISRDNAKNTVYLQMNSLKPEDTAVYYCNTYRNHYGWRKFNYWGQGTQVTVSS,high polyreactivity
7,QVQLVESGGGLVQAGGSLRLSCAASGFIFQTNVMGWYRQAPGKERELVAAISSGDSTYYADSVKGRFTISRDNAKNTVYLQMNSLKPEDTAVYYCAARRGTGSYSYRYPYGYDYWGQGTQVTVSS,low polyreactivity
8,QVQLVESGGGLVQAGGSLRLSCAASGFIFQYYAMGWYREAPGKERELVAAISKTGGSTYYADSVKGRFTISRDNAKNTVYLQMNSLKPEDTAVYYCAVARSAYYRGNHWGQGSQVTVSS,high polyreactivity
9,QVQLVESGGGLVQAGGSLRLSCAASGFIFQYYAMGWYRQAPGKERELVAAITSGGTTYYADSVKGRFTISRDNAKNTVYLQMNSLKPEDTAVYYCAAVFVNFYARFDYWGQGTQVTVSS,low polyreactivity
10,QVQLVESGGGLVQAGGSLRLSCAASGFIFRDNTMGWYRQAPGKEREFVAGITKSGGSTYYADSVKGRFTISRDNAKNTVYLQMNSLKPEDTAVYYCAAYVPYTRYDYWGQGTQVTVSS,high polyreactivity
11,QVQLVESGGGLVQAGGSLRLSCAASGFIFRDYAMGWYRQAPGKERELVAAIDYSGGSTNYADSVKGRFTISRDNAKNTVYLQMNSLKPEDTAVYYCNAEYTWHRGYEYWGQGTQVTVSS,low polyreactivity
12,QVQLVESGGGLVQAGGSLRLSCAASGFIFRDYVMGWYRQAPGKERELVAAISYRGGSTNYADSVKGRFTISRDNAKNTVYLQMNSLKPEDTAVYSCAADQVHKREYDYWGQGTQVTVSS,low polyreactivity
13,QVQLVESGGGLVQAGGSLRLSCAASGFIFRGNAMGWYRQAPGKERELVAAISKRGGSTNYADSVKGRFTISRDNAKNTVYLQMNSLKPEDTAVYYCNAEGIYRQPRGYVYRYDYWGQGTQVTVSS,high polyreactivity
14,QVQLVESGGGLVQAGGSLRLSCAASGFIFRGYAMGWYRQPPGKERELVATITNGGSTYYADSVKGRFTISRDNAKNTVYLQMNSLKPEDTAVYFCAAVTKFGEYAPGSKGYGYWGQGSQVTVSS,low polyreactivity
15,QVQLVESGGGLVQAGGSLRLSCAASGFIFRIYAMGWYRQAPGKERELVAAITWDGVSTYYADSVKGRFTISRDNAKNTVYLQMNSLKPEDTAVYYCAARKRSYPYYYWGQGTQVTVSS,high polyreactivity
16,QVQLVESGGGLVQAGGSLRLSCAASGFIFRNYAMGWSRQAPGKERELVAAITRSGTSTYYADSVKGRFTISRDNAKNTVYLQMNSLKPEDTAVYYCNAGWGLRLSWLGNYWGQGTQVTVSS,high polyreactivity

row,Sequence,polyreactivity (PSR sort gate)
1,QVQLVESGGGLVQAGGSLRLSCAASGFIFRPYVMGWYRQAPGKERELVAAISRSGSSTYYADSVKGRFTISRDNAKNTVYLQMNSLQPEDTAVYYCARRTSQEFDYWGQGTQVTVSS,high polyreactivity
2,QVQLVESGGGLVQAGGSLRLSCAASGFIFRQNAMGWYRQAPGKERELVAAITSSGGRTYYADSVKGRFTISRDNAKNTVYLQMNSLKPEDTAVYYCARRDYWGQGTQVTVSS,high polyreactivity
3,QVQLVESGGGLVQAGGSLRLSCAASGFIFRRNAMGWSRQAPRKERELVAAISSRGGTTYYADSVKGRFTISRDNAKNTVYLQMNSLKPEDTAVYYCNAVKFGATAYDYWGQGTQVTVSS,high polyreactivity
4,QVQLVESGGGLVQAGGSLRLSCAASGFIFRRNAMGWYRQAPGKERELVASIRSGGSTKYADSVKGRFTISRDNAKNTVYLQMNSLKPEDTAVYYCAKDRYHISFFYQMEYWGQGTQVTVSS,low polyreactivity
5,QVQLVESGGGLVQAGGSLRLSCAASGFIFRRYAMGSYRQAPGKERELVAAISGSGGRTYYADSVKGRFTISRDNAKNTVYLQMNSLKPEDTAVYYCAADHGSLLYDYWGQGTQVTVSS,high polyreactivity
6,QVQLVESGGGLVQAGGSLRLSCAASGFIFRRYAMGWYRQAPGKERELVAAISGRGASTYYGDSVKGRFTISRDNAKNNVYVQMNSLKPEDTAAYYCNAVPDNLNYDYWGQGTQVTVSS,high polyreactivity
7,QVQLVESGGGLVQAGGSLRLSCAASGFIFRRYAMGWYRQPPGKERELVAAISGSGGRTYYADSVKGRFTISRDNAKNTVYLQMNSLKPEDTAVYYCAADHGSLLYDYWGQGTQVTVSS,high polyreactivity
8,QVQLVESGGGLVQAGGSLRLSCAASGFIFRRYTMGWYTQAPGKERELVATITRSVNTDYADSVKGRFTISRDNAKNTVYLQMNSLKPEDTAVYYCAARKYYYFPVAYDYWGQGTQVTVSS,high polyreactivity
9,QVQLVESGGGLVQAGGSLRLSCAASGFIFRSYAMGWYRQAPGKEREFVAAITTRGTGTYYADSVKGRFTISRDNAKNTVYLQMNSLKPEDTAVYDCAARRGWGDDYWGQGTQVTVSS,high polyreactivity
10,QVQLVESGGGLVQAGGSLRLSCAASGFIFRSYAMGWYRQAPGKEREFVASISSRGGTTYYADSVKGRFTISRDNAKNTVYLQMNSLKTEDTAVYYCYAKRRYGPDKYDYWGQGTQVTVSS,high polyreactivity
11,QVQLVESGGGLVQAGGSLRLSCAASGFIFRSYAMGWYRQAPGKERELVAAISRSGGSTYYADSVKGRFTISRDNAKNTVYLQMNSLKPEDTAVYYCNTARRDREVDYWGQGTQVTVSS,high polyreactivity
12,QVQLVESGGGLVQAGGSLRLSCAASGFIFRSYAMGWYRQAPGKERELVAVISRRGVNTHYADSVKGRFTISRDNAKNTVNLQMNSLKPEDTAVYYCAKGLTALGDYWGQGTQVTVSS,high polyreactivity
13,QVQLVESGGGLVQAGGSLRLSCAASGFIFRSYDMGWYRQAPGKERELVAAITRGGRTYYADSVKGRFTISRDNAKNTVYLQMNSLKPEDTAVYYCAARGTHVADGYYWGQGTQVTVSS,high polyreactivity
14,QVQLVESGGGLVQAGGSLRLSCAASGFIFRSYVMGWYRQAPGKEREFVAVITSSGGRTYYADSVKGRFTISRDNAKNTVYLQMNSLKPEDTAVYYCAATRRYPPRRVWYDYWGQGTEVTVSS,high polyreactivity
15,QVQLVESGGGLVQAGGSLRLSCAASGFIFRTYAMGWYRQAPGKERELVATITGDGSTNYADSVKGRFTISRDNAKNTVYLQMNSLKPEDTAVYYCSRDDRLAGDYWGQGTQVTVSS,low polyreactivity
16,QVQLVESGGGLVQAGGSLRLSCAASGFIFRVNAMGWYRQAPGKERELVATITWNGGSTYYADSVKGRFTISRDNAKNTVYLQMNSLKPEDTAVYYCNRVRYRGYYPGPYSYSYDYWGQGTQVTVSS,low polyreactivity
